Measurements reported in PMC7822592, “The half-life of the bone-derived hormone osteocalcin is regulated through O-glycosylation in mice, but not in humans” (eLife, 2020).
No end group written: not given here. O‑glycan = not defined here

How the values were obtained:
[1] = Ex vivo half-life of mouse OCN in plasma; format: in vitro ADME; settings: 100 ng/ml; for % OCN from initial: Bglap-/- mouse plasma
Protocol: The mouse OCN ex vivo half-life assays were performed with fresh plasma (lithium heparin) collected from four independent Bglap-/- mice. Glycosylated OCN produced in HEK293 cells and non-glycosylated OCN, produced in bacteria as previously described ([Ferron et al., 2012]), were incubated at 100 ng/ml in plasma at 37°C and OCN level was measured at indicated time points using the total mouse OCN ELISA assay described previously ([Ferron et al., 2010b]). […] The detection antibody is a goat polyclonal antibody directed against the C-terminal region (amino acids 26 to 46) of mouse OCN (anti-CTERM OCN). This assay detects with the same sensitivity glycosylated and non-glycosylated mouse OCN at concentration of 50 ng/ml or less (Figure 3—figure supplement 2). Therefore, all samples were diluted to be in this range before being measured by the ELISA. Human OCN half-life assay was performed ex vivo using Bglap-/- mice plasma and human OCN at 60 ng/ml. Human OCN level was measured at different time point using the human ucOCN ELISA described above. At the experiment start point (T0), an aliquot of plasma was diluted in ELISA assay buffer and kept on ice for OCN measurements. In some experiments, plasma was heat-inactivated for 30 min at 56°C, or treated with EDTA (10 mM, Wisent), phenylmethylsulfonyl fluoride (PMSF, 10 mM, Sigma), pepstatin A (Pep A, 10 μM, Sigma) which inhibits aspartic proteases (pepsin, cathepsin D, renin, chymosin), RVKR (Dec-RVKR-CMK, 50 μM; Tocris) or talabostat (10 mM; Tocris). Results are calculated in percentage relative to the initial concentration of non-glycosylated and glycosylated OCN respectively.

INS-1 832/3 cells [2] = assay: Ins1 gene expression in INS-1 832/3 cells treated with ucOCN; format: cell-based, rat; settings: 8 hr, qPCR
Protocol: (§1) The INS-1 832/3 rat insulinoma cell line (Millipore-Sigma) was cultured in RPMI-1640 with 11.1 mM D-glucose, supplemented with 2 mM L-glutamine, 1 mM sodium pyruvate, 10 mM HEPES, 0.05 mM β-mercaptoethanol and 10% FBS ([Hohmeier et al., 2000]). On day 1, cells were plated at 3 × 10^5 cells per well in 12-well plates and on day 5, cells were washed with PBS and incubated with culture media containing 5 mM D-glucose. Twenty-four hours later, cells were washed with PBS and incubated for 4 hr in culture media containing 1% FBS, 5 mM D-glucose and 0.1% BSA. OCN was added for 8 hr before supernatants and cells were harvested. ucOCN and O-gly ucOCN concentration were measured in supernatants by ELISA and cells were lyzed and RNA extracted as described in the material and methods section. Gene expression was analyzed using rat specific primers for Ins1 and Gapdh.

INS-1 832/3 cells [3] = assay: OCN stability in INS-1 832/3 cell culture media; format: in vitro ADME, rat; settings: 8 hours with INS-1 cells at 37°C, ELISA
Protocol: as §1

INS-1 832/3 cells [4] = assay: OCN stability in INS-1 832/3 cell culture media; format: in vitro ADME, rat; settings: 8 hours at 4°C without cells, ELISA

For “O-gly ucOCN: O-glycosylated uncarboxylated mouse osteocalcin produced and purified from HEK293 as Fc fusion, released by thrombin (YLGASVPS(O‑glycan)PDPLEPTREQCELNPACDELSDQYGLKTAYKRIYGITI; ends and bridges not checked; also: O-glycosylated (HexNAc, Hex, NANA); UniProt P86546 50-95, looked up)”, the “% OCN from initial” value ([1]; 37°C, 0 min, ELISA, replicate 1) was 100.0%, the “% OCN from initial” value ([1]; 37°C, 0 min, ELISA, replicate 2) was 100.0% and the “% OCN from initial” value ([1]; 37°C, 0 min, ELISA, replicate 3) was 100.0%. The “% OCN from initial” value ([1]; 37°C, 0 min, ELISA, replicate 4) was 100.0%, the “% OCN from initial” value ([1]; 37°C, 0 min, ELISA, replicate 5) was 100.0% and the “% OCN from initial” value ([1]; 37°C, 15 min, ELISA, replicate 1) was 104.1%. The “% OCN from initial” value ([1]; 37°C, 15 min, ELISA, replicate 2) was 103.7%, the “% OCN from initial” value ([1]; 37°C, 15 min, ELISA, replicate 3) was 102.4% and the “% OCN from initial” value ([1]; 37°C, 15 min, ELISA, replicate 4) was 105.4%. The “% OCN from initial” value ([1]; 37°C, 15 min, ELISA, replicate 5) was 92.4%, the “% OCN from initial” value ([1]; 37°C, 30 min, ELISA, replicate 1) was 101.9% and the “% OCN from initial” value ([1]; 37°C, 30 min, ELISA, replicate 2) was 103.9%. For the same substance, the “% OCN from initial” value ([1]; 37°C, 30 min, ELISA, replicate 3) was 104.6%, the “% OCN from initial” value ([1]; 37°C, 30 min, ELISA, replicate 4) was 102.8% and the “% OCN from initial” value ([1]; 37°C, 30 min, ELISA, replicate 5) was 91.2%. For the same substance, the “% OCN from initial” value ([1]; 37°C, 60 min, ELISA, replicate 1) was 103.5%, the “% OCN from initial” value ([1]; 37°C, 60 min, ELISA, replicate 2) was 108.3% and the “% OCN from initial” value ([1]; 37°C, 60 min, ELISA, replicate 3) was 103.5%. The “% OCN from initial” value ([1]; 37°C, 60 min, ELISA, replicate 4) was 102.6%, the “% OCN from initial” value ([1]; 37°C, 60 min, ELISA, replicate 5) was 95.6% and the “% OCN from initial” value ([1]; 37°C, 90 min, ELISA, replicate 1) was 108.4%. For the same substance, the “% OCN from initial” value ([1]; 37°C, 90 min, ELISA, replicate 2) was 106.6%, the “% OCN from initial” value ([1]; 37°C, 90 min, ELISA, replicate 3) was 107.8% and the “% OCN from initial” value ([1]; 37°C, 90 min, ELISA, replicate 4) was 102.6%. For the same substance, the “% OCN from initial” value ([1]; 37°C, 90 min, ELISA, replicate 5) was 92.9%, the “% OCN from initial” value ([1]; 37°C, 120 min, ELISA, replicate 1) was 105.8% and the “% OCN from initial” value ([1]; 37°C, 120 min, ELISA, replicate 2) was 103.2%. For the same substance, the “% OCN from initial” value ([1]; 37°C, 120 min, ELISA, replicate 3) was 106.0%, the “% OCN from initial” value ([1]; 37°C, 120 min, ELISA, replicate 4) was 107.0% and the “% OCN from initial” value ([1]; 37°C, 120 min, ELISA, replicate 5) was 90.1%. For the same substance, the “% OCN from initial” value ([1]; 37°C, 180 min, ELISA, replicate 1) was 106.8%, the “% OCN from initial” value ([1]; 37°C, 180 min, ELISA, replicate 2) was 107.9% and the “% OCN from initial” value ([1]; 37°C, 180 min, ELISA, replicate 3) was 107.4%. The “% OCN from initial” value ([1]; 37°C, 180 min, ELISA, replicate 4) was 119.0%, the “% OCN from initial” value ([1]; 37°C, 180 min, ELISA, replicate 5) was 78.8% and the “% OCN from initial” value ([1]; 37°C, 300 min, ELISA, replicate 1) was 106.5%. For the same substance, the “% OCN from initial” value ([1]; 37°C, 300 min, ELISA, replicate 2) was 103.5%, the “% OCN from initial” value ([1]; 37°C, 300 min, ELISA, replicate 3) was 104.6% and the “% OCN from initial” value ([1]; 37°C, 300 min, ELISA, replicate 4) was 102.2%. For the same substance, the “% OCN from initial” value ([1]; 37°C, 300 min, ELISA, replicate 5) was 88.0%, the “% OCN from initial” value ([1]; Figure 3D, 2hrs, 37°C, Not HI, ELISA, replicate 1) was 100.8% and the “% OCN from initial” value ([1]; Figure 3D, 2hrs, 37°C, Not HI, ELISA, replicate 2) was 92.4%. The “% OCN from initial” value ([1]; Figure 3D, 2hrs, 37°C, Not HI, ELISA, replicate 3) was 106.8%, the “% OCN from initial” value ([1]; Figure 3D, T0, ELISA, replicate 1) was 101.5% and the “% OCN from initial” value ([1]; Figure 3D, T0, ELISA, replicate 2) was 94.9%. The “% OCN from initial” value ([1]; Figure 3D, T0, ELISA, replicate 3) was 103.6%, the “% OCN from initial” value ([1]; Figure 3 supplement 3A, 37°C, T=2hours, replicate 1) was 90.8% and the “% OCN from initial” value ([1]; Figure 3 supplement 3A, 37°C, T=2hours, replicate 2) was 95.5%. For the same substance, the “% OCN from initial” value ([1]; Figure 3 supplement 3A, 37°C, T=2hours, replicate 3) was 95.0%, the “% OCN from initial” value ([1]; Figure 3 supplement 3A, T0, replicate 1) was 105.0% and the “% OCN from initial” value ([1]; Figure 3 supplement 3A, T0, replicate 2) was 101.3%. The “% OCN from initial” value ([1]; Figure 3 supplement 3A, T0, replicate 3) was 93.7%, the “stable in plasma for” value ([1]; fresh Bglap-/- mouse plasma (lithium heparin), 37°C, total mouse OCN ELISA, n = 4 plasma) was “more than 5 hr” and the “Ins1 gene expression (Fold change relative to vehicle)” value (INS-1 832/3 cells [2]; 0.1 ng/mL, replicate 1) was 2.4 Fold change. For the same substance, the “Ins1 gene expression (Fold change relative to vehicle)” value (INS-1 832/3 cells [2]; 0.1 ng/mL, replicate 2) was 1.6 Fold change, the “Ins1 gene expression (Fold change relative to vehicle)” value (INS-1 832/3 cells [2]; 0.1 ng/mL, replicate 3) was 2.2 Fold change and the “Ins1 gene expression (Fold change relative to vehicle)” value (INS-1 832/3 cells [2]; 0.1 ng/mL, replicate 4) was 2.6 Fold change. The “Ins1 gene expression (Fold change relative to vehicle)” value (INS-1 832/3 cells [2]; 0.1 ng/mL, replicate 5) was 3.1 Fold change, the “Ins1 gene expression (Fold change relative to vehicle)” value (INS-1 832/3 cells [2]; 0.1 ng/mL, replicate 6) was 3.0 Fold change and the “Ins1 gene expression (Fold change relative to vehicle)” value (INS-1 832/3 cells [2]; 0.1 ng/mL, replicate 7) was 4.2 Fold change. The “Ins1 gene expression (Fold change relative to vehicle)” value (INS-1 832/3 cells [2]; 0.1 ng/mL, replicate 8) was 2.7 Fold change, the “Ins1 gene expression (Fold change relative to vehicle)” value (INS-1 832/3 cells [2]; 0.3 ng/mL, replicate 1) was 0.562 Fold change and the “Ins1 gene expression (Fold change relative to vehicle)” value (INS-1 832/3 cells [2]; 0.3 ng/mL, replicate 2) was 1.1 Fold change. For the same substance, the “Ins1 gene expression (Fold change relative to vehicle)” value (INS-1 832/3 cells [2]; 0.3 ng/mL, replicate 3) was 1.1 Fold change, the “Ins1 gene expression (Fold change relative to vehicle)” value (INS-1 832/3 cells [2]; 0.3 ng/mL, replicate 4) was 12.1 Fold change and the “Ins1 gene expression (Fold change relative to vehicle)” value (INS-1 832/3 cells [2]; 0.3 ng/mL, replicate 5) was 2.0 Fold change. For the same substance, the “Ins1 gene expression (Fold change relative to vehicle)” value (INS-1 832/3 cells [2]; 0.3 ng/mL, replicate 6) was 8.6 Fold change, the “Ins1 gene expression (Fold change relative to vehicle)” value (INS-1 832/3 cells [2]; 0.3 ng/mL, replicate 7) was 2.7 Fold change and the “Ins1 gene expression (Fold change relative to vehicle)” value (INS-1 832/3 cells [2]; 0.3 ng/mL, replicate 8) was 4.9 Fold change. The “Ins1 gene expression (Fold change relative to vehicle)” value (INS-1 832/3 cells [2]; 0.3 ng/mL, replicate 9) was 2.3 Fold change, the “Ins1 gene expression (Fold change relative to vehicle)” value (INS-1 832/3 cells [2]; 0.3 ng/mL, replicate 10) was 0.7 Fold change and the “OCN in stimulation media” value (INS-1 832/3 cells [3]; replicate 1) was 0.12 ng/mL. The “OCN in stimulation media” value (INS-1 832/3 cells [3]; replicate 2) was 0.13 ng/mL, the “OCN in stimulation media” value (INS-1 832/3 cells [3]; replicate 3) was 0.13 ng/mL and the “OCN in stimulation media” value (INS-1 832/3 cells [4]; replicate 1) was 0.15 ng/mL. For the same substance, the “OCN in stimulation media” value (INS-1 832/3 cells [4]; replicate 2) was 0.15 ng/mL and the “OCN in stimulation media” value (INS-1 832/3 cells [4]; replicate 3) was 0.14 ng/mL.
